Measurements as given in article PMC10703350, “Fibril structures of TFG protein mutants validate the identification of TFG as a disease-related amyloid protein by the IMPAcT method” (PNAS Nexus, 2023).

B1: TFG low-complexity domain (residues 237-327) with the G269V mutation conjugated to mCherry (domain or fragment, human, UniProt Q92734 237-327, looked up)
chain: GQIEGQMYQQYQQQAGYGAQQPQAPPQQPQQYVIQYSASYSQQTGPQQPQQFQGYGQQPTSQAPAPAFSGQPQQLPAQPPQQYQASNYPAQ
notes: TRK-fused gene protein (TFG), human, low-complexity domain residues 237-327 with the disease-related (CMT2) mutation G269V; PDB 8TEQ holds only the ordered fibril core (262-290 and 265-290); also called mC-TFG-LCD-G269V; G269V mutant; source: E. coli BL21(DE3) gold, purified (Ni-NTA, size exclusion chromatography), dialyzed into PBS; not shown: mCherry, N-terminal, kept
B2: TFG low-complexity domain (residues 237-327) with the P285L mutation conjugated to mCherry (domain or fragment, human, UniProt Q92734 237-327, looked up)
chain: GQIEGQMYQQYQQQAGYGAQQPQAPPQQPQQYGIQYSASYSQQTGPQQLQQFQGYGQQPTSQAPAPAFSGQPQQLPAQPPQQYQASNYPAQ
notes: TRK-fused gene protein (TFG), human, low-complexity domain residues 237-327 with the disease-related (HMSN-P) mutation P285L; PDB 8TER holds only the ordered fibril core (265-299); also called mC-TFG-LCD-P285L; P285L mutant; source: E. coli BL21(DE3) gold, purified (Ni-NTA, size exclusion chromatography), dialyzed into PBS; not shown: mCherry, N-terminal, kept

Molecular target: the molecule itself
Experiment: cryo-EM structure; amyloid fibrils of the purified construct (formed at 50 μM in PBS, 37°C, shaking); helical reconstruction in RELION, de novo model of the fibril core

| Protein | binding result |
| --- | --- |
| B1 | binds |
| B2 | binds |
